Target: T1, EGFP-RABL2B, Q9UNT1
T1 chain: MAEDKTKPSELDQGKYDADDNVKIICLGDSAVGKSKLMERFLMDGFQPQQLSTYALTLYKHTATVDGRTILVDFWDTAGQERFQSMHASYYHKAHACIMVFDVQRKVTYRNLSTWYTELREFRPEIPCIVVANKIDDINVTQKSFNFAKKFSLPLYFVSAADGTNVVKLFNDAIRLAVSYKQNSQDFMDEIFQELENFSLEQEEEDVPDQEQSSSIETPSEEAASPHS
Assay: co-immunoprecipitation (IP anti-EGFP, Western blot anti-Myc), IP/input band quantitation
Conditions: chain shown with the change; lysates from HEK293T cells; Input is 2.5% of lysate used for IP; parent: 100

B1: CD8α-(HTR6-CT)-myc, Q9R1C8 L398A; L399A; L400A (protein)
chain: MVPEPGPVNSSTPAWGPGPPPAPGGSGWVAAALCVVIVLTAAANSLLIALICTQPALRNTSNFFLVSLFTSDLMVGLVVMPPAMLNALYGRWVLARGLCLLWTAFDVMCCSASILNLCLISLDRYLLILSPLRYKLRMTAPRALALILGAWSLAALASFLPLLLGWHELGKARTSAPGQCRLLASLPYVLVASGVTFFLPSGAICFTYCRILLAARKQAVQVASLTTGTATAGQALETLQVPRTPRPGMESADSRRLTTKHSRKALKASLTLGILLSMFFVTWLPFFVASIAQAVCDCISPGLFDVLTWLGYCNSTMNPIIYPLFMRDFKRALGRFVPCVHCPPEHRASPASPSMWTSHSGARPGLSLQQVLPLPLPPNSDSDSASGGTSGLQLTAQAAAPGEATRDPPPPTRAPTVVNFFVTDSVEPEIRQHPLGSPMN
Which percent of parent does the source give for B1 here?
The percent of parent was 243%.
